Experiment [1] has as its target T1, CD20 (Homo sapiens, UniProt P11836).
T1 chain: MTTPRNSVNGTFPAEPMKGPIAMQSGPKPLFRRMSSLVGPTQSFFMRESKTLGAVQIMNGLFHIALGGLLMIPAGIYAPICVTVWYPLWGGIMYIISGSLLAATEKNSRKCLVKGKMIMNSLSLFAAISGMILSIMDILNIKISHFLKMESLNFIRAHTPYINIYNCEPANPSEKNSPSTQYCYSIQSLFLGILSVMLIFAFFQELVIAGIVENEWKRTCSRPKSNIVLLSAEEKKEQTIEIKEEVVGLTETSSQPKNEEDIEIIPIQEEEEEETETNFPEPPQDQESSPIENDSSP
Kind of experiment: real-time cell binding (bivalent, Daudi).

Experiment [2] concerns the target T1, CD20. Kind of experiment: real-time cell binding (one-to-two, Daudi).
Experiment [3] addresses T1, CD20. Kind of experiment: real-time cell binding (one-to-one, Ramos).

The source of these data is article PMC5401896 (2017).

B1: Rituximab (antibody, V domains shown)
VH: QVQLQQPGAELVKPGASVKMSCKASGYTFTSYNMHWVKQTPGRGLEWIGAIYPGNGDTSYNQKFKGKATLTADKSSSTAYMQLSSLTSEDSAVYYCARSTYYGGDWYFNVWGAGTTVTVSA
VL: QIVLSQSPAILSASPGEKVTMTCRASSSVSYIHWFQQKPGSSPKPWIYATSNLASGVPVRFSGSGSGTSYSLTISRVEAEDAATYYCQQWTSNPPTFGGGTKLEIK
Take B1: the figures for the Kd with CD20 [1], in the experiment with CD20 [2] and with CD20 [3] were 7.8 nM, 0.2 nM and 0.7 nM, respectively.
